Legend:
Test in all cases: purified protein
Settings in all cases: 0.1 mM NADPH, 100 mM Tris pH 7.5, 50 °C, 2% p-dioxane
purified protein [1] = substrate: CC(=O)c1cccc(O)c1; assay type: biochemical, Tepidiforma thermophila
purified protein [2] = substrate: CC(=O)c1ccc(O)cc1; assay type: biochemical, Tepidiforma thermophila
purified protein [3] = substrate: CCCCCCC(C)=O
purified protein [4] = substrate: CCC(=O)c1ccccc1
purified protein [5] = substrate: CC(=O)c1ccccc1
purified protein [6] = substrate: CC(=O)CCc1ccccc1
purified protein [7] = substrate: CCCCCC(C)=O

B1: ssnBVMO (Tepidiforma thermophila) (protein)
chain: MTSNAPQSFDSIIVGAGFAGLYQLIRLRRAGFSARVIEAGDNVGGTWYWNRYPGARCDIESLQYQYAFDPGLAKEWRWTERYATQPEILRYIEFVADRYDLRRDIQFSTRVTAAHYDEAAARWTVHTDRGDLYSCRYLVMATGCLSVPKTPEVPGIETFEGESYHTGAWPHEGVDFTGKRVAVIGTGSSAIQSIPIIARQAAHLTVFQRTPNFSVPAHNYFLDEEQWRAAAERIAELRAEARTTSAGITGLPLNDVSALAVSEEERRREYERRWAMGGFAIGGAFNDIAINPDANETAAEFVRQKIREIVQDPETAEALCPRDYPFGTKRLCVDIAYYETFNRPNVKLVSIRDNPIAAITPKGVRLENGDEYEFDAIVYATGFDAMTGALLRIDIRGRDGLTLREKWEHGPRTYLGIQVAGFPNMFTITGPGSPSVLSNMIVSIEQHVDWVTDCLEYLRERDLATIEASPAAEDAWVNHVNEVANLTLYPRANSWYIGANVPGKPRVFMPYVGGVGAYAQKCAEVAANGYEGFILQPEPAALSR
- Km (purified protein [1]): 2500 ± 2000 µM
- kcat (purified protein [1]): 0.127 ± 0.038 s⁻¹
- Km (purified protein [2]): 1280 ± 180 µM
- kcat (purified protein [2]): 0.455 ± 0.026 s⁻¹
- Km (purified protein [3]): 20.1 ± 9.6 µM
- kcat (purified protein [3]): 0.671 ± 0.076 s⁻¹
- Km (purified protein [4]): 373 ± 39 µM
- kcat (purified protein [4]): 0.152 ± 0.003 s⁻¹
- Km (purified protein [5]): 2520 ± 610 µM
- kcat (purified protein [5]): 0.335 ± 0.018 s⁻¹
- Km (purified protein [6]): 22 ± 12 µM
- kcat (purified protein [6]): 0.76 ± 0.10 s⁻¹
- Km (purified protein [7]): 3.7 ± 1.5 µM
- kcat (purified protein [7]): 0.455 ± 0.038 s⁻¹

B2: PTDH-L1-ssnBVMO (Tepidiforma thermophila) (protein)
chain: MTSNAPQSFDSIIVGAGFAGLYQLIRLRRAGFSARVIEAGDNVGGTWYWNRYPGARCDIESLQYQYAFDPGLAKEWRWTERYATQPEILRYIEFVADRYDLRRDIQFSTRVTAAHYDEAAARWTVHTDRGDLYSCRYLVMATGCLSVPKTPEVPGIETFEGESYHTGAWPHEGVDFTGKRVAVIGTGSSAIQSIPIIARQAAHLTVFQRTPNFSVPAHNYFLDEEQWRAAAERIAELRAEARTTSAGITGLPLNDVSALAVSEEERRREYERRWAMGGFAIGGAFNDIAINPDANETAAEFVRQKIREIVQDPETAEALCPRDYPFGTKRLCVDIAYYETFNRPNVKLVSIRDNPIAAITPKGVRLENGDEYEFDAIVYATGFDAMTGALLRIDIRGRDGLTLREKWEHGPRTYLGIQVAGFPNMFTITGPGSPSVLSNMIVSIEQHVDWVTDCLEYLRERDLATIEASPAAEDAWVNHVNEVANLTLYPRANSWYIGANVPGKPRVFMPYVGGVGAYAQKCAEVAANGYEGFILQPEPAALSR
- Km (purified protein [1]): 1590 ± 270 µM
- kcat (purified protein [1]): 0.120 ± 0.023 s⁻¹
- Km (purified protein [2]): 760 ± 120 µM
- kcat (purified protein [2]): 0.301 ± 0.061 s⁻¹
- Km (purified protein [3]): 25.7 ± 2.5 µM
- kcat (purified protein [3]): 0.536 ± 0.078 s⁻¹
- Km (purified protein [4]): 700 ± 140 µM
- kcat (purified protein [4]): 0.371 ± 0.057 s⁻¹
- Km (purified protein [5]): 3600 ± 790 µM
- kcat (purified protein [5]): 0.459 ± 0.081 s⁻¹
- Km (purified protein [7]): 6.3 ± 3.1 µM
- kcat (purified protein [7]): 0.61 ± 0.11 s⁻¹
